Source: article PMC3726324, “Characterization of the PAS domain in the sensor-kinase BvgS: mechanical role in signal transmission” (BMC Microbiology, 2013)

What was measured:
[1] = biological target: recombinant PASBvg protein N2C2 (BvgS residues 573-714) (Bordetella pertussis) (UniProt P16575); test: SEC; size-exclusion chromatography of the purified recombinant proteins; data not shown
[2] = biological target: recombinant PASBvg protein N3C3 (BvgS residues 581-720) (Bordetella pertussis) (UniProt P16575); test: as above
[3] = biological target: recombinant PASBvg protein N3C2 (BvgS residues 581-714) (Bordetella pertussis) (UniProt P16575); test: as above
[4] = biological target: recombinant PASBvg protein N2C3 (BvgS residues 573-720) (Bordetella pertussis) (UniProt P16575); test: as above
[5] = biological target: recombinant PASBvg protein N2C3 (BvgS residues 573-720) (Bordetella pertussis) (UniProt P16575); test: native MS; ESI-Q-TOF, positive ion mode, native conditions; purified N2C3 at 10 uM in 27 mM ammonium acetate
[6] = biological target: the molecule itself; test: not stated; oligomeric state of the purified or soluble N2C3 variants; method not named; not shown

recombinant PASBvg protein N2C2 (BvgS residues 573-714) (from UniProt P16575 573-714) (domain or fragment)
stoichiometry N [1]: 2

recombinant PASBvg protein N3C3 (BvgS residues 581-720) (from UniProt P16575 581-720) (domain or fragment)
stoichiometry N [2]: 2

recombinant PASBvg protein N3C2 (BvgS residues 581-714) (from UniProt P16575 581-714) (domain or fragment)
stoichiometry N [3]: 2

recombinant PASBvg protein N2C3 (BvgS residues 573-720) (from UniProt P16575 573-720) (domain or fragment)
stoichiometry N [4]: 2
stoichiometry N [5]: 2

B1: N2C3 Asn608Ala (BvgS residues 573-720, N608A) (domain or fragment)
chain: AERALNDQLEFMRVLIDGTPNPIYVRDKEGRMLLCADAYLDTFGVTADAVLGKTIPEANVVGDPALAREMHEFLLTRVAAEREPRFEDRDVTLHGRTRHVYQWTIPYGDSLGELKGIIGGWIDITERAELLRELHDAKESADAANRAK
notes: numbering from the initiation Met of full-length BvgS; source: E. coli BL21 (DE3), pASK-IBA35+, soluble fraction; produced in very low amounts
stoichiometry N [6]: 2

B2: N2C3 Asn608Ser (BvgS residues 573-720, N608S) (domain or fragment)
chain: AERALNDQLEFMRVLIDGTPNPIYVRDKEGRMLLCSDAYLDTFGVTADAVLGKTIPEANVVGDPALAREMHEFLLTRVAAEREPRFEDRDVTLHGRTRHVYQWTIPYGDSLGELKGIIGGWIDITERAELLRELHDAKESADAANRAK
notes: numbering from the initiation Met of full-length BvgS; source: E. coli BL21 (DE3), pASK-IBA35+, purified
stoichiometry N [6]: 2

B3: N2C3 Asp695Ala (BvgS residues 573-720, D695A) (domain or fragment)
chain: AERALNDQLEFMRVLIDGTPNPIYVRDKEGRMLLCNDAYLDTFGVTADAVLGKTIPEANVVGDPALAREMHEFLLTRVAAEREPRFEDRDVTLHGRTRHVYQWTIPYGDSLGELKGIIGGWIAITERAELLRELHDAKESADAANRAK
notes: as for B2
stoichiometry N [6]: 2

B4: N2C3 His643Ala (BvgS residues 573-720, H643A) (domain or fragment)
chain: AERALNDQLEFMRVLIDGTPNPIYVRDKEGRMLLCNDAYLDTFGVTADAVLGKTIPEANVVGDPALAREMAEFLLTRVAAEREPRFEDRDVTLHGRTRHVYQWTIPYGDSLGELKGIIGGWIDITERAELLRELHDAKESADAANRAK
notes: as for B2
stoichiometry N [6]: 2

B5: N2C3 Cys607Ala (BvgS residues 573-720, C607A) (domain or fragment)
chain: AERALNDQLEFMRVLIDGTPNPIYVRDKEGRMLLANDAYLDTFGVTADAVLGKTIPEANVVGDPALAREMHEFLLTRVAAEREPRFEDRDVTLHGRTRHVYQWTIPYGDSLGELKGIIGGWIDITERAELLRELHDAKESADAANRAK
notes: as for B2
stoichiometry N [6]: 2

B6: N2C3 Arg670Ala (BvgS residues 573-720, R670A) (domain or fragment)
chain: AERALNDQLEFMRVLIDGTPNPIYVRDKEGRMLLCNDAYLDTFGVTADAVLGKTIPEANVVGDPALAREMHEFLLTRVAAEREPRFEDRDVTLHGRTAHVYQWTIPYGDSLGELKGIIGGWIDITERAELLRELHDAKESADAANRAK
notes: as for B2
stoichiometry N [6]: 2

B7: N2C3 Tyr596Ala + Asn631Ala (BvgS residues 573-720, Y596A + N631A) (domain or fragment)
chain: AERALNDQLEFMRVLIDGTPNPIAVRDKEGRMLLCNDAYLDTFGVTADAVLGKTIPEAAVVGDPALAREMHEFLLTRVAAEREPRFEDRDVTLHGRTRHVYQWTIPYGDSLGELKGIIGGWIDITERAELLRELHDAKESADAANRAK
notes: as for B2
stoichiometry N [6]: 2
